In PMC13397619:

B1: NLV3 TCR beta chain (CDR3β only) (parent)
chain: ASSPTGGSPSPLH
partner: NLCPMVATV

Variants of: B1
Test: T-Switch: Jurkat TCRβ−/− cells expressing a CDR3 saturation-mutagenesis library, stained with two peptide-HLA-A*02:01 tetramers (original and novel peptide) plus anti-CD3, FACS-sorted into four gates, gDNA sequenced
Conditions: with HLA-A*02:01 with peptide … (NLV 2-1, the novel peptide), tetramers 1 µg/mL, 30 min on ice, SP, DP and SW gates expanded about 10 days between rounds ('two to three rounds of selection' in the Methods), gate SW: higher = more of the variant in the gate that binds the novel peptide and not the original one = switched binding. Fold enrichment of the CDR3 variant in one FACS gate of a two-tetramer stain, unresolved parent, parent is a CDR3 fragment, scale: fold enrichment, numbering: sequential-on-construct, sequence starts at 1

Variant	enrichment
[…] (CDR3 as printed); A1E derived by comparing it with the table's wild-type CDR3 ASSPTGGSPSPLH	0
[…] (CDR3 as printed); P11D derived by comparing it with the table's wild-type CDR3 ASSPTGGSPSPLH	0
[…] (CDR3 as printed); T5Q derived by comparing it with the table's wild-type CDR3 ASSPTGGSPSPLH	0
[…] (CDR3 as printed); G6C derived by comparing it with the table's wild-type CDR3 ASSPTGGSPSPLH	0
[…] (CDR3 as printed); S3D derived by comparing it with the table's wild-type CDR3 ASSPTGGSPSPLH	0
[…] (CDR3 as printed); T5S derived by comparing it with the table's wild-type CDR3 ASSPTGGSPSPLH	0
[…] (CDR3 as printed); T5L derived by comparing it with the table's wild-type CDR3 ASSPTGGSPSPLH	0
[…] (CDR3 as printed); P11M derived by comparing it with the table's wild-type CDR3 ASSPTGGSPSPLH	0
[…] (CDR3 as printed); S2G derived by comparing it with the table's wild-type CDR3 ASSPTGGSPSPLH	0
[…] (CDR3 as printed); P9W derived by comparing it with the table's wild-type CDR3 ASSPTGGSPSPLH	0
[…] (CDR3 as printed); S3Y derived by comparing it with the table's wild-type CDR3 ASSPTGGSPSPLH	0
[…] (CDR3 as printed); S10W derived by comparing it with the table's wild-type CDR3 ASSPTGGSPSPLH	0
[…] (CDR3 as printed); S10C derived by comparing it with the table's wild-type CDR3 ASSPTGGSPSPLH	0
[…] (CDR3 as printed); P9E derived by comparing it with the table's wild-type CDR3 ASSPTGGSPSPLH	0
[…] (CDR3 as printed); P9T derived by comparing it with the table's wild-type CDR3 ASSPTGGSPSPLH	0
[…] (CDR3 as printed); G6D derived by comparing it with the table's wild-type CDR3 ASSPTGGSPSPLH	0
[…] (CDR3 as printed); G6W derived by comparing it with the table's wild-type CDR3 ASSPTGGSPSPLH	0
[…] (CDR3 as printed); P4G derived by comparing it with the table's wild-type CDR3 ASSPTGGSPSPLH	0
[…] (CDR3 as printed); S8G derived by comparing it with the table's wild-type CDR3 ASSPTGGSPSPLH	0
[…] (CDR3 as printed); H13L derived by comparing it with the table's wild-type CDR3 ASSPTGGSPSPLH	0
[…] (CDR3 as printed); L12D derived by comparing it with the table's wild-type CDR3 ASSPTGGSPSPLH	0
[…] (CDR3 as printed); T5N derived by comparing it with the table's wild-type CDR3 ASSPTGGSPSPLH	0

Variant	enrichment
[…] (CDR3 as printed); T5E derived by comparing it with the table's wild-type CDR3 ASSPTGGSPSPLH	0
[…] (CDR3 as printed); G6A derived by comparing it with the table's wild-type CDR3 ASSPTGGSPSPLH	0
[…] (CDR3 as printed); L12Q derived by comparing it with the table's wild-type CDR3 ASSPTGGSPSPLH	0
[…] (CDR3 as printed); T5A derived by comparing it with the table's wild-type CDR3 ASSPTGGSPSPLH	0
[…] (CDR3 as printed); G7W derived by comparing it with the table's wild-type CDR3 ASSPTGGSPSPLH	0
[…] (CDR3 as printed); S3Q derived by comparing it with the table's wild-type CDR3 ASSPTGGSPSPLH	0
[…] (CDR3 as printed); P4Y derived by comparing it with the table's wild-type CDR3 ASSPTGGSPSPLH	0
[…] (CDR3 as printed); A1W derived by comparing it with the table's wild-type CDR3 ASSPTGGSPSPLH	0
[…] (CDR3 as printed); H13N derived by comparing it with the table's wild-type CDR3 ASSPTGGSPSPLH	0
[…] (CDR3 as printed); S3C derived by comparing it with the table's wild-type CDR3 ASSPTGGSPSPLH	0
[…] (CDR3 as printed); G6I derived by comparing it with the table's wild-type CDR3 ASSPTGGSPSPLH	0
[…] (CDR3 as printed); L12M derived by comparing it with the table's wild-type CDR3 ASSPTGGSPSPLH	0
[…] (CDR3 as printed); P4A derived by comparing it with the table's wild-type CDR3 ASSPTGGSPSPLH	0
[…] (CDR3 as printed); S2Q derived by comparing it with the table's wild-type CDR3 ASSPTGGSPSPLH	0
[…] (CDR3 as printed); S2V derived by comparing it with the table's wild-type CDR3 ASSPTGGSPSPLH	0
[…] (CDR3 as printed); T5R derived by comparing it with the table's wild-type CDR3 ASSPTGGSPSPLH	0
[…] (CDR3 as printed); H13A derived by comparing it with the table's wild-type CDR3 ASSPTGGSPSPLH	0
[…] (CDR3 as printed); A1I derived by comparing it with the table's wild-type CDR3 ASSPTGGSPSPLH	0
[…] (CDR3 as printed); G7R derived by comparing it with the table's wild-type CDR3 ASSPTGGSPSPLH	0
[…] (CDR3 as printed); S8W derived by comparing it with the table's wild-type CDR3 ASSPTGGSPSPLH	0
[…] (CDR3 as printed); G7M derived by comparing it with the table's wild-type CDR3 ASSPTGGSPSPLH	0
[…] (CDR3 as printed); H13S derived by comparing it with the table's wild-type CDR3 ASSPTGGSPSPLH	0

Variant	enrichment
[…] (CDR3 as printed); H13M derived by comparing it with the table's wild-type CDR3 ASSPTGGSPSPLH	0
[…] (CDR3 as printed); S10I derived by comparing it with the table's wild-type CDR3 ASSPTGGSPSPLH	0
[…] (CDR3 as printed); A1T derived by comparing it with the table's wild-type CDR3 ASSPTGGSPSPLH	0
[…] (CDR3 as printed); S10F derived by comparing it with the table's wild-type CDR3 ASSPTGGSPSPLH	0
[…] (CDR3 as printed); S3F derived by comparing it with the table's wild-type CDR3 ASSPTGGSPSPLH	0
[…] (CDR3 as printed); S8M derived by comparing it with the table's wild-type CDR3 ASSPTGGSPSPLH	0
[…] (CDR3 as printed); T5I derived by comparing it with the table's wild-type CDR3 ASSPTGGSPSPLH	0
[…] (CDR3 as printed); G7F derived by comparing it with the table's wild-type CDR3 ASSPTGGSPSPLH	0
[…] (CDR3 as printed); L12R derived by comparing it with the table's wild-type CDR3 ASSPTGGSPSPLH	0
[…] (CDR3 as printed); H13I derived by comparing it with the table's wild-type CDR3 ASSPTGGSPSPLH	0
[…] (CDR3 as printed); T5K derived by comparing it with the table's wild-type CDR3 ASSPTGGSPSPLH	0
[…] (CDR3 as printed); P4N derived by comparing it with the table's wild-type CDR3 ASSPTGGSPSPLH	0
[…] (CDR3 as printed); P4I derived by comparing it with the table's wild-type CDR3 ASSPTGGSPSPLH	0
[…] (CDR3 as printed); S8D derived by comparing it with the table's wild-type CDR3 ASSPTGGSPSPLH	0
[…] (CDR3 as printed); S8I derived by comparing it with the table's wild-type CDR3 ASSPTGGSPSPLH	0
[…] (CDR3 as printed); S10H derived by comparing it with the table's wild-type CDR3 ASSPTGGSPSPLH	0
[…] (CDR3 as printed); S3A derived by comparing it with the table's wild-type CDR3 ASSPTGGSPSPLH	0
[…] (CDR3 as printed); H13E derived by comparing it with the table's wild-type CDR3 ASSPTGGSPSPLH	0
[…] (CDR3 as printed); P11S derived by comparing it with the table's wild-type CDR3 ASSPTGGSPSPLH	0
[…] (CDR3 as printed); G7L derived by comparing it with the table's wild-type CDR3 ASSPTGGSPSPLH	0
[…] (CDR3 as printed); T5F derived by comparing it with the table's wild-type CDR3 ASSPTGGSPSPLH	0
[…] (CDR3 as printed); L12C derived by comparing it with the table's wild-type CDR3 ASSPTGGSPSPLH	0

Variant	enrichment
[…] (CDR3 as printed); H13P derived by comparing it with the table's wild-type CDR3 ASSPTGGSPSPLH	0
[…] (CDR3 as printed); A1L derived by comparing it with the table's wild-type CDR3 ASSPTGGSPSPLH	0
[…] (CDR3 as printed); P11G derived by comparing it with the table's wild-type CDR3 ASSPTGGSPSPLH	0
[…] (CDR3 as printed); A1H derived by comparing it with the table's wild-type CDR3 ASSPTGGSPSPLH	0
[…] (CDR3 as printed); P4D derived by comparing it with the table's wild-type CDR3 ASSPTGGSPSPLH	0
[…] (CDR3 as printed); P9V derived by comparing it with the table's wild-type CDR3 ASSPTGGSPSPLH	0
[…] (CDR3 as printed); L12V derived by comparing it with the table's wild-type CDR3 ASSPTGGSPSPLH	0
[…] (CDR3 as printed); G7C derived by comparing it with the table's wild-type CDR3 ASSPTGGSPSPLH	0
[…] (CDR3 as printed); T5P derived by comparing it with the table's wild-type CDR3 ASSPTGGSPSPLH	0
[…] (CDR3 as printed); G6F derived by comparing it with the table's wild-type CDR3 ASSPTGGSPSPLH	0
[…] (CDR3 as printed); P11R derived by comparing it with the table's wild-type CDR3 ASSPTGGSPSPLH	0
[…] (CDR3 as printed); S2Y derived by comparing it with the table's wild-type CDR3 ASSPTGGSPSPLH	0
[…] (CDR3 as printed); S2I derived by comparing it with the table's wild-type CDR3 ASSPTGGSPSPLH	0
[…] (CDR3 as printed); A1S derived by comparing it with the table's wild-type CDR3 ASSPTGGSPSPLH	0
[…] (CDR3 as printed); G7K derived by comparing it with the table's wild-type CDR3 ASSPTGGSPSPLH	0
[…] (CDR3 as printed); S10M derived by comparing it with the table's wild-type CDR3 ASSPTGGSPSPLH	0
[…] (CDR3 as printed); S3H derived by comparing it with the table's wild-type CDR3 ASSPTGGSPSPLH	0
[…] (CDR3 as printed); S10R derived by comparing it with the table's wild-type CDR3 ASSPTGGSPSPLH	0
[…] (CDR3 as printed); P11C derived by comparing it with the table's wild-type CDR3 ASSPTGGSPSPLH	0
